Stoichiometry N data for one substance are collected here from publication PMC12432413.

This experiment addresses CP* (calprotectin, S100A8 C42S / S100A9 C3S heterodimer) (UniProt P05109). Put plainly: crystal structure; Ca2+-loaded CP* with 0.7 equivalents of Zn2+; 20 mM Tris pH 7.5, 100 mM NaCl, 2 mM MgCl2; hanging drop, 20°C, 1.0M sodium citrate (pH 5.2), 28% MPD; 1.87 Å.

By stoichiometry N is commonly meant the number of molecules, sites or subunits per partner or assembly.

As to “CP* (calprotectin, S100A8 C42S / S100A9 C3S heterodimer) (from UniProt P05109 1-87; P06702 5-112) (complex)”, the stoichiometry N stood at 2.
